Assay results as given in article PMC12443421.
Positions count from the first letter of the chain named. Names may count otherwise. Blank lines part the entries; values can stand above or below the binder they belong to.

Biological target: wild-type unmodified 147 bp nucleosome (nucleosome core particle), P04908;P62807;Q71DI3;P62805
Experiment: EMSA
Details: chain shown with the change

Kd: 10.3 µM
B1: KDM5A^CAT (lysine demethylase 5A, residues 1-801), P29375 R264A; R265A; R266A; R271A (protein)
chain: MAGVGPGGYAAEFVPPPECPVFEPSWEEFTDPLSFIGRIRPLAEKTGICKIRPPKDWQPPFACEVKSFRFTPRVQRLNELEAMTRVRLDFLDQLAKFWELQGSTLKIPVVERKILDLYALSKIVASKGGFEMVTKEKKWSKVGSRLGYLPGKGTGSLLKSHYERILYPYELFQSGVSLMGVQMPNLDLKEKVEPEVLSTDTQTSPEPGTRMNILPKRTRRVKTQSESGDVSRNTELKKLQIFGAGPKVVGLAMGTKDKEDEVTAAAKVTNRSDAFNMQMRQRKGTLSVNFVDLYVCMFCGRGNNEDKLLLCDGCDDSYHTFCLIPPLPDVPKGDWRCPKCVAEECSKPREAFGFEQAVREYTLQSFGEMADNFKSDYFNMPVHMVPTELVEKEFWRLVSSIEEDVIVEYGADISSKDFGSGFPVKDGRRKILPEEEEYALSGWNLNNMPVLEQSVLAHINVDISGMKVPWLYVGMCFSSFCWHIEDHWSYSINYLHWGEPKTWYGVPSHAAEQLEEVMRELAPELFESQPDLLHQLVTIMNPNVLMEHGVPVYRTNQCAGEFVVTFPRAYHSGFNQGYNFAEAVNFCTADWLPIGRQCVNHYRRLRRHCVFSHEELIFKMAADPECLDVGLAAMVCKELTLMTEEETRLRESVVQMGVLMSEEEVFELVPDDERQCSACRTTCFLSALTCSCNPERLVCLYHPTDLCPCPMQKKCLRYRYPLEDLPSLLYGVKVRAQSYDTWVSRVTEALSANFNHKKDLIELRVMLEDAEDRKYPENDLFRKLRDAVKEAETCASVAQLL

Kd: 12 µM
B3: KDM5A^CAT (lysine demethylase 5A, residues 1-801), P29375 R217A; R219A; R220A (protein)
chain: B1 chain with R217A, R219A, R220A, A264R, A265R, A266R

More lines, now with the values behind:

B2: KDM5A^CAT (lysine demethylase 5A, residues 1-801), P29375 R210A; R217A; R219A; R220A; R232A; R264A; R265A; R266A; R271A; R280A; R282A (protein)
chain: B1 chain with R210A, R217A, R219A, R220A, R232A, R271A, R280A, R282A
Kd: 14 µM
Kd (0-32 µM KDM5A^MutR titration): 14 µM

B4: KDM5A^CAT (lysine demethylase 5A, residues 1-801), P29375 R280A; R282A (protein)
chain: B1 chain with A264R, A265R, A266R, R280A, R282A
Kd: 7.8 µM
